Reference: paper doi:10.1101/2024.06.19.598823 (bioRxiv, 2024)

Molecular target: RBD protein of SARS-like CoV WIV16 (Bat SARS-like coronavirus WIV16)
Assay: ELISA

B1: nanobody 7F (VHH)
VHH: EVQLVESGGGLVEAGGSLRLSCVASGLTFSDYTMAWFRQVPGQEREFVSHIGWGGSETYYADSVKGRFTISRDNAKNAMYLQMNELKPDDTAVYYCAADRGSSFYYVRESEYTFWGQGTQVTVSS
B1: binds.
